# Test results published in the DeepSol protein solubility set.
# Assay: soluble on expression in E. coli; label from the status in PepcDB or PDB records
row,Sequence,soluble on expression in E. coli
1,MAANEGNQPIPPEEEKEISSLLESIKIGKTSLKYRCFYLYDDKMTDLTEEQKETLKKLKLYQKEYYDYESKFEYELFLLRQKYHDLYGPIYDKRREALVGNGEAKIGTPNLPEFWLRALRNNNTVSHVIEDHDEEILVYLNDIRCDYIKKNKEKKEGFILSFYFATNPFFSNSVLTKTYHMKCVDCDNEPVLLHTEATVIDWYDNKNILKKNVVKKQHNKNSREVKTVQQTVNRDSFFHFFTSHKVPNSNVIKQLSKHEVAQLEMIIEGDYEVALTIKERIIPYAVDYYLGIIIESESNSIVSDVDSSYSSSENNSNYNSYESNNSAYNDENSNVDTNEYDDNEEEEEGAKSNEDPLTS,soluble
2,MAANSLPTNVASPVQTTTPTTDKRSIGFIDRQLGTNPAELPPLPYGYDALEKAIDAETMKLHHDKHHAAYVNNLNNALKKHPELQNSSVEALLRDLNSVPEDIRTTVRNNGGGHLNHTIFWQIMSPDGGGQPTGDIAQEINQTFGSFEEFKKQFNQAGGDRFGSGWVWLVRNPQGQLQVVSTPNQDNPIMEGSYPIMGNDVWEHAYYLRYQNRRPEYLNNWWNVVNWSEINRRTQASRQSNSHHHHHH,soluble
3,MAAQIPIVAATSTPAVARNSKKRPASPSHNSSGGGYGASKKKKLSASGFAQGVSIEAMNESKMASSELSSGPVEKAAKPLPFKDPNFVHSGHGGAVAGKKNRTWKNLKQILAAERALPWQLNDPNYFSIDAPPSFKPAKKYSDISGLLANYTDPQSKLRFSTVEEFSYIRRLPSDVVTGYLALRKATSIVP,not soluble
4,MAAQVEIEDQESVTNLDNGEIINPISDNAPNFSGDATILLREATFEHNLIKNCFLSGMGSFATETTIVTVRKILTQRLITTKAKFAVFKLFTEAMKRKNNGYANIRYGWYSGSKEEIDRVITYGFSNREIKKVENDVGSHGVGIHLVHHRYSLAAALVGEGDEEGIKNILLCRVILGKPEQIVTGSKQSYPSSNQFDSGVDNLENPRKYVIWSCNMNSYILPTYIVSFKSHLLRGLIGRARSPCVSFSVLMSILSKSLDAARMNLILTSYDDFRKRKLRREQLVRKIREVVGDNLLFKILKNQRR,soluble
5,MAAQVTLEDALSNVDLLEELPLPDQQPCIEPPPSSLLYQPNFNTNFEDRNAFVTGIARYIEQATVHSSMNEMLEEGQEYAVMLYTWRSCSRAIPQVKCNEQPNRVEIYEKTVEVLEPEVTKLMNFMYFQRNAIERFCGEVRRLCHAERRKDFVSEAYLITLGKFINMFAVLDELKNMKCSVKNDHSAYKRAAQFLRKMADPQSIQESQNLSMFLANHNKITQSLQQQLEVISGYEELLADIVNLCVDYYENRMYLTPSEKHMLLKVMGFGLYLMDGSVSNIYKLDAKKRINLSKIDKYFKQLQVVPLFGDMQIELARYIKTSAHYEENKSRWTCTSSGSSPQYNICEQMIQIREDHMRFISELARYSNSEVVTGSGRQEAQKTDAEYRKLFDLALQGLQLLSQWSAHVMEVYSWKLVHPTDKYSNKDCPDSAEEYERATRYNYTSEEKFALVEVIAMIKGLQVLMGRMESVFNHAIRHTVYAALQDFSQVTLREPLRQAIKKKKNVIQSVLQAIRKTVCDWETGHEPFNDPALRGEKDPKSGFDIKVPRRAVGPSSTQLYMVRTMLESLIADKSGSKKTLRSSLEGPTILDIEKFHRESFFYTHLINFSETLQQCCDLSQLWFREFFLELTMGRRIQFPIEMSMPWILTDHILETKEASMMEYVLYSLDLYNDSAHYALTRFNKQFLYDEIEAEVNLCFDQFVYKLADQIFAYYKVMAGSLLLDKRLRSECKNQGATIHLPPSNRYETLLKQRHVQLLGRSIDLNRLITQRVSAAMYKSLELAIGRFESEDLTSIVELDGLLEINRMTHKLLSRYLTLDGFDAMFREANHNVSAPYGRITLHVFWELNYDFLPNYCYNGSTNRFVRTVLPFSQEFQRDKQPNAQPQYLHGSKALNLAYSSIYGSYRNFVGPPHFQVICRLLGYQGIAVVMEELLKVVKSLLQGTILQYVKTLMEVMPKICRLPRHEYGSPGILEFFHHQLKDIVEYAELKTVCFQNLREVGNAILFCLLIEQSLSLEEVCDLLHAAPFQNILPRVHVKEGERLDAKMKRLESKYAPLHLVPLIERLGTPQQIAIAREGDLLTKERLCCGLSMFEVILTRIRSFLDDPIWRGPLPSNGVMHVDECVEFHRLWSAMQFVYCIPVGTHEFTVEQCFGDGLHWAGCMIIVLLGQQRRFAVLDFCYHLLKVQKHDGKDEIIKNVPLKKMVERIRKFQILNDEIITILDKYLKSGDGEGTPVEHVRCFQPPIHQSLASS,not soluble
6,MAARRAPISRRDRPAKPALSRRWIVDTAVALMRAEGLEKVTMRRLAQELDTGPASLYVYVANTAELHAAVLDALLGEVDLTGAGAEEDWREQLRAVLTSYTLVLFAHPQLARSALVARPSGENYLRLVERVLELLARSGAPGAQVAWGVDKLLQDATATAAEQATQEHDPASHEDWSATVRALRDADEATHPAIASHMPLLVAGSAHDRLRWSFDVLVNGITRTPVPGPARGAAG,soluble
7,MAASMARLWWPFLARQGLRSRGRCVCSQNPRRSFATEKRVRNLLYEHAREGYSELPYLDMESVCACPEKAARSLELRKGELRPADLPAIISTWQELRQLREQIRSLEAEKEAVAEAVRALLANQDSDQVQKDPQYQGLRARGREIRKQLTPLYPQETQLEEQLYQQALRLPNQTHPDTPVGDESQARVVRVVGEKPAFSFQPRGHLEIGEKLDIIRQKRLSHVSGHRSYYLRGAGALLQHGLVNFTLSKLVSRGFTPMTVPDLLRGAVFEGCGMTPNANPSQIYNIDPSRFEDLNLAGTAEVGLAGYFMDHSVAFRDLPVRMVCASTCYRAETDTGKEPWGLYRVHHFTKVEMFGVTGPGLEQSSQLLDEFLSLQVEILTELGLHFRVLDMPTQELGLPAYRKFDIEAWMPGRGRYGEVTSASNCTDFQSRRLYIMFETETGELQFAHTVNATACAVPRVLIALLESNQQKDGSVLVPAALQPYLGTDRITAPTHVPLQYIGPNQPQKPRLPGQSATR,soluble
8,MAATNHAQAIKKDTKDFITTALLQMLAKEKLQALTVSQICKRAGVSRMAFYRNFNGLEQILYEYYQPKIGAMFDTIRENPQFSAKFDSQLKFFNTFGDDIILSIDRGFEPIIQQIFKEEIEKFYFKDNDEHWTTFMSAGVYAIWRKWLLDGRQKPLKEIMDFFKQFDMIKGNV,not soluble
9,MADDPHVLAFLARVHQGRRDRVEDHLHEHFIRERNLHQRPQFPPLQLVPVQAEHEYEHPFPLVDVFKFSLQGDSVKTASSSWQGLQWKVKCSIYNLPGELLATRVSVDFFNLMDRVFKATVKYEMNEKFAAANEFAEVVIDSNHSTIVFPETGAFAPGRLVDGMLPTEIAVKIKLEHAEIVDQFSYNNQSWVMGTRWVRYGDECSVRMNFDVLKNLNPCHDKFFDDLREQVLSPKEARAFFDFASAIFNRSFMGLDLFHESVRNGLKFGFTTNWDSLNTVDSEFDFNSRTAFPGYQNVLYEQPSELTSISNRETAGMCQIFKLNLDPSDVTTRFQVASMNNVKSHTSQFTFYLENSPNGYLLIAGGCFQMESRQLVNLKLTLFDSGVSCRNIQTFRILHKEQSTIKVVIALLDDDKMEKMSRGKLLLNFQMHMNGTISNVVRNFEDQTKRIGDFAMPGLVTGYINCRDKKRIGVCKEHLANNSEHLNMLFFNTVFEDCGKNEITVNEDSDIVLDALDIIYHRSLAIFPAQINRVLDLAGYWLSATMHRFMEIAILHSTHISDSAKLELAAEHHFDIIKYVARHPRYASTYHLSLTDEEIMQVRIPADNEVDGGTGGRPRRVEDLMDLEEQQE,not soluble
10,MADEEKVTTEEQALADEWAAALAEAGDASQDDIDALMAQGGATPVAEPSTPRAPMEEFGASPKAPTISGLEGPNLDVILDIPVTISMEVGHTDISIRNLLQLNQGSVIELDRLAGEPLDVLVNGTLIAHGEVVVVNEKFGIRLTDVISPSERIKKLR,not soluble
11,MADINPNHTIYVNNLNEKVKKDELKRSLHMVFTQFGEIIQLMSFRKEKMRGQAHIVFKEVSSASNALRALQGFPFYGKPMRIQYAREDSDVISRAKGTFVEKRQKSTKIAKKPYEKPAKNGKSAAEPTQKEPQETDGPGLPNNILFCSNIPEGTEPEQIQTIFSQFPGLREVRWMPNTKDFAFIEYESEDLSEPARQALDNFRITPTQQITVKFASK,not soluble
